Values quoted from earlier work as cited in paper PMC12208613.
Where “and” joins values, the source holds several entries; their conditions need not be identical. Equal entries are not always repeated.

Molecular target: CD7 (Homo sapiens) (UniProt P09564)
Sequence (P09564 26-180): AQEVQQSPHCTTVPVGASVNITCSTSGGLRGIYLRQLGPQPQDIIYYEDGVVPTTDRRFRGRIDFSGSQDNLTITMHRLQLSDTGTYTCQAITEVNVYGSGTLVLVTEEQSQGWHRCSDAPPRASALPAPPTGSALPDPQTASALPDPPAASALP

K12, sequence (Q8WVN6 29-145): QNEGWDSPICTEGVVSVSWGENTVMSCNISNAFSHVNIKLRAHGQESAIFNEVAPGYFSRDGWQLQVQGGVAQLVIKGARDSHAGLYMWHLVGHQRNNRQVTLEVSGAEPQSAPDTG

K12 (from UniProt Q8WVN6)
Kd: 0.01 µM and 0.038 µM
